B1: StBEL-22: BEL transcription factor from Solanum tuberosum, SEQ ID NO:10 (protein, listed as Solanum tuberosum)
chain: TSVYETAGLLSEMFNFQTTSTAATELLQNQLSNNYRHPNQQPHHQPPTREWFGNRQEIVVGGSLQVTFGDTKDDVNAKVLLSNRDSVTDYYQRQHNQVPSINTAESMQLFLMNPQPSSPSQSTPSTLHQGFSSPVGGHFSQFMCGGASTSSNPIGGVNVIDQGQGLSLSLSSTLQHLEASKVEDLRMNSGGEMLFFNQESQNHHNIGFGSSLGLVNVLRNSKYVKATQELLEEFCCVGKGQLFKKINKVSRNNNTSTSPIINPSGSNNNNSSSSKAIIPPNLSTAERLDHQRRKVKLLSMLDEVEKRYNHYCEQMQMVVNSFDLVMGFGAAVPYTALAQKAMSRHFKCLKDGVAAQLKKTCEALGEKDASSSSGLTKGETPRLKVLEQSLRQQRAFQQMGMMEQEAWRPQRGLPERSVNILRAWLFEHFLHPYPSDADKHLLARQTGLSRNQVANWFINARVRLWKPMVEEMYQREVNEDDVDDMQENQNSTNTQIPTPNIIITTNSNITETKSAATATIASDKKPQINVSEIDPSIVAMNTHYSSSMPTQLTNFPTIQDESDHILYRRSGAEYGTTNMASNSEIGSNMITFGTTTASDVSLTLGLRHAGNLPENTHFSG
B2: StBEL-30: BEL transcription factor from Solanum tuberosum, SEQ ID NO:14 (protein, listed as Solanum tuberosum)
chain: MATYFPSPNNQRDADQTFQYFRQSLPESYSEASNAPENMMVFMNYSSSGAYSDMLTGTSQQQHNCIDIPSIGATPFNTSQQEILSNLGGSQMGIQDFSSWRDSRNEMLADNVFQVAQNVQGQGLSLSLGSNIPSGIGISHVQSQNPNQGGGFNMSFGDGDNSQPKEQRNADYFPPDNPGRDLDAMKGYNSPYGTSSIARTIPSSKYLKAAQYLLDEVVSVRKAIKEQNSKKELTKDSRESDVDSKNISSDTPANGGSNPHESKNNQSELSPTEKQEVQNKLAKLLSMLDEIDRRYRQYYHQMQIVVSSFDVVAGEGAAKPYTALALQTISRHFRCLRDAICDQIRASRRSLGEQDASENSKAIGISRLRFVDHHIRQQRALQQLGMMQQHAWRPQRGLPESSVSVLRAWLFEHFLHPYPKDSDKIMLARQTGLTRSQVSNWFINARVRLWKPMVEEMYKEEAGDAKIDSNSSSDVAPRLATKDSKVEERGELHQNAASEFEQYNSGQILESKSNHEADVEMEGASNAETQSQSGMENQTGEPLPAMDNCTLFQDAFVQSNDRFSEFGSFGSGNVLPNGVSLTLGLQQGEGSNLPMSIETHVSYVPLRADDMYSTAPTTMVPETAEFNCLDSGNRQQPFWLLPSAT
B3: StBEL-13: BEL transcription factor from Solanum tuberosum, SEQ ID NO:6 (protein, listed as Solanum tuberosum)
chain: MVMGGGASSQQLGYAKNHTPNVAESMQLFLMNPQPRSPSPSPPNSTSSTLHMLLPNPSSTSTLQGFPNPAEGSFGQFITWGNGGASAATATHHLNAQNEIGGVNVVESQGLSLSLSSSLQHKAEELQMSGEAGGMMFFNQGGSSTSGQYRYKNLNMGGSGVSPNIHQVHVGYGSSLGVVNVLRNSKYAKAAQELLEEFCSVGRGKLKKTNNKAAANNPNTNPSGANNEASSKDVPTLSAADRIEHQRRKVKLLSMVDEVDRRYNHYCEQMQMVVNSFDLVMGFGTAVPYTALAQKAMSRHFRCLKDAIGAQLKQSCELLGEKDAGNSGLTKGETPRLKMLEQSLRQQRAFHQMGMMEQEAWRPQRGLPERSVNILRAWLFEHFLHPYPSDADKHLLARQTGLSRNQVSNWFINARVRLWKPMVEDMYQQEAKDEDGDGDEKSQSQNSGNNIIAQTPTPNSLTNTSSTNMTTTTAPTTTTALAAAETGTAATPITVTSSKRSQINATDSDPSLVAINSFSENQATFPTNIHDPDDCRRGNLSGDDGTTTHDHMGSTMIRFGTTAGDVSLTLGLRHAGNLPENTHFFG
B4: StBEL-11: BEL transcription factor from Solanum tuberosum, SEQ ID NO:4 (protein, listed as Solanum tuberosum)
chain: MTFRSSLPLDLREISTTNHQVGILSSSPLPSPGTNTNNINHTRGLGASSSFSISNGMILGSKYLKVAQDLLDEVVNVGKNIKLSDGLESGAKEKHKLDNELISLASDDVESSSQKNSGVELTTAQRQELQMKKAKLVSMLDEVDQRYRQYHHQMQMIATSFEQTTGIGSSKSYTQLALHTISKQFRCLKDAISGQIKDTSKTLGEEENIGGKIEGSKLKFVDHHLRQQRALQQLGMMQTNAWKPQRGLPERAVSVLRAWLFEHFLHPYPKDSDKIILAKQTGLTRSQVSNWFINARVRLWKPMVEEMYMEEVKKNNQEQNIEPNNNEIVGSKSSVPQEKLPISSNIIHNASPNDISTSTISTSPTGGGGSIPTQTVAGFSFIRSLNMENIDDQRNNKKARNEMQNCSTSTILSMEREIINKVVQDETIKSEKFNNTQTRECYSLMTPNYTMDDQFGTRFNNQNHEQLATTTTFHQGNGHVSLTLGLPPNSENQHNYIGLENHYNQPTHHPNISYENIDFQSGKRYATQLLQDFVS
B5: StBEL-14: BEL transcription factor from Solanum tuberosum, SEQ ID NO:8 (protein, listed as Solanum tuberosum)
chain: MVNHQLQNFETNPEMYNLSSTTSSMDQMIGFPPNNNNPHHVLWKGNFPNKINGVDDDDHGPSSSKNIISEQFYQHGSHENMLTTTTTHHDDHQGSWHHDNNRTLLVDDPSMRCVFPCEGNERPSHGLSLSLCSSNPSSIGLQSFELRHQDLQQGLIHDGFLGKSTNIQQGYFHHHHQVRDSKYLGPAQELLSEFCSLGIKKNNDHSSSKVLLKQHESTASTSKKQLLQSLDLLELQKRKTKLLQMLEEVDRRYKHYCDQMKAVVSSFEAVAGNGAATVYSALASRAMSRHFRCLRDGIVAQIKATKMAMGEKDSTSTLIPGSTRGETPRLRLLDQTLRQQKAFQQMNMMETHPWRPQRGLPERSVSVLRAWLFEHFLHPYPSDVDKHILARQTGLSRSQVSNWFINARVRLWKPMVEEMYLEETKEEENVGSPDGSKALIDDMTIHQSHIDHHQADQKPNLVRIDSECISSIINHQPHEKNDQNYGVIRGGDQSFGAIELDFSTNIAYGTSGGDHHHHGGGVSLTLGLQQHGGSGGSSMGLTTFSSQPSHNQSSLFYPRDDDQVQYSSLLDSENQNLPYRNLDGGTTSS
B6: StBEL-29: BEL transcription factor from Solanum tuberosum, SEQ ID NO:12 (protein, listed as Solanum tuberosum)
chain: QGLSLSLSSSQQPGFGNFTAARELVSSPSGSASASGIQQQQQQQQSISSVPLSSKYMKAAQELLDEVVNVGKSMKSTNSTDVVVNNDVKKSKNMGDMDGQLDGVGADKDGAPTTELSTGERQEIQMKKAKLVNMLDEVEQRYRHYHHQMQSVIHWLEQAAGIGSAKTYTALALQTISKQFRCLKDAIIGQIRSASQTLGEEDSLGGKIEGSRLKFVDNQLRQQRALQQLGMIQHNAWRPQRGLPERAVSVLRAWLFEHFLHPYPKDSDKMMLAKQTGLTRSQVSNWFINARVRLWKPMVEEMYLEEIKEHEQNGLGQEKTSKLGEQNEDSTTSRSIATQDKSPGSDSQNKSFVSKQDNHLPQHNPASPMPDVQRHFHTPIGMTIRNQSAGFNLIGSPEIESINITQGSPKKPRNNEMLHSPNSIPSINMDVKPNEEQMSMKFGDDRQDRDGFSLMGGPMNFMGGFGAYPIGEIARFSTEQFSAPYSTSGTVSLTLGLPHNENLSMSATHHSFLPIPTQNIQIGSEPNHEFGSLNTPTSAHSTSSVYETFNIQNRKRFAAPLLPDFVA

System: POTH1
Sequence (as listed by the source): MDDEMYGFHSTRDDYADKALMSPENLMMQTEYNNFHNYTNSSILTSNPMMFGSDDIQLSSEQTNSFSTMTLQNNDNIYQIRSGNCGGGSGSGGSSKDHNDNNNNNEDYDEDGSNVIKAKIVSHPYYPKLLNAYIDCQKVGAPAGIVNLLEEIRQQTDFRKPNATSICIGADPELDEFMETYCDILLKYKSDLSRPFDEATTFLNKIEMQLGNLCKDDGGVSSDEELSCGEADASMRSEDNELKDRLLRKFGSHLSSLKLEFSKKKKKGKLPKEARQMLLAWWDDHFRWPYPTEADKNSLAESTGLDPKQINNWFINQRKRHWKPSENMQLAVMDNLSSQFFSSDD
Experiment: Yeast two-hybrid interaction with POTH1 (nutritional selection, beta-galactosidase)
Assay type: cell-based, potato
Conditions: yeast strain AH109, nutritional markers and lacZ
Source text: The Matchmaker two-hybrid system (Clontech, CA) was used for the yeast two-hybrid screen. Yeast transformation and plasmid rescue into DH5-a E. coli cells were according to the manufacturer's instructions. Full-length POTH1 was cloned into the pBridge (Clontech, CA) vector and used as bait to screen the potato (S. tuberosum ‘Desireé’) stolon cDNA library in pAD-GAL4-2.1 (Stratagene, Calif.). Positive interactions were confirmed by cotransforming yeast strain AH109 with each purified pAD plasmid and pBridge: POTH1 and plating on -leucine/-tryptophan (transformation control) and -leucine/-tryptophan/-histidine/-adenine (selection) nutrient medium. Induction of the AH109 reporter gene, lacZ, was measured with a yeast β-galactosidase assay kit (Pierce Chemicals). β-galactosidase activity (FIG. 9B) was determined from a known density of yeast cells and calculated as 1000×OD420/time of color reaction (minutes)×volume of yeast culture (ml)×OD600.
The StBEL-05 deletion constructs were amplified by PCR, then cloned into the vector, pGAD, in-frame with the GAL4 activation domain. POTH1 deletion constructs were amplified by PCR, and cloned into pBridge (Clontech) in-frame with the GAL4 binding domain. Sequencing of selected cDNAs and constructs was performed at the Iowa State University DNA Facility. For deletion analysis, modified constructs of POTH1 were cloned into the pBridge vector for fusion with the DNA-binding domain of GAL4 (FIG. 10A). For StBEL-05, constructs were cloned into the pGAD vector for fusion with the activating domain of GAL4 (FIG. 10B). Deletion constructs were made from both the amino and carboxy termini. These mutants were then tested for interaction in the yeast two-hybrid system by cotransforming into yeast strain AH109 with the corresponding full-length partner (StBEL-05 in pGAL4 or POTH1 in pBridge). All constructs were sequenced to verify that they were in-frame. Positive interactions were verified for lacZ induction by using a β-galactosidase assay (Pierce Chemical Company). For POTH1, seven deletion constructs were tested (FIG. 10A). For the BEL TFs, a fusion construct of StBEL-05 (653 aa of StBEL-05 sequence) and nine deletion constructs were tested (FIG. 10B).

Row | Molecule | interaction with POTH1
1 | B1 | showed selective interaction
2 | B2 | showed selective interaction
3 | B3 | showed selective interaction
4 | B4 | showed selective interaction
5 | B5 | showed selective interaction
6 | B6 | showed selective interaction
